# Laboratory results: publication PMC10784468 (Nature Communications, 2024)
# Where two headings read alike, the source gives them in different places. Positions of bridges follow the written chain, without caps; N, C: chain ends. Residues, ends and D or L forms follow the SMILES beside them. *: point of attachment. X1 = O=C(O)c1ccc(-c2c3nc(c(-c4ccc(C(=O)O)cc4)c4ccc([nH]4)c(-c4ccc(C(=O)*)cc4)c4nc(c(-c5ccc(C(=O)O)cc5)c5ccc2[nH]5)C=C4)C=C3)cc1; X2 = O=C(O)C/C(=C/C(=O)*)C(=O)O
# Conditions: Cy-labeled
# Procedure: Firstly, A density of 5 × 10^6 EJ cell resuspended in Matrigel were subcutaneously injected into the right hind of mice to construct EJ xenograft model. When the tumor volume reached about 200–400 mm^3, the mice were administrated with Cy labeled Gi-F ([…]), Cy labeled Gi-F-SA ([…]) and Cy labeled Gi-F-CAA ([…]) by intravenous injection for in vivo fluorescence imaging at different timepoints (10 min, 20 min, 40 min, 1 h, 2 h, 4 h, 8 h, 12 h and 24 h) with in vivo imaging system (IVIS). Meanwhile, the EJ xenograft mice were sacrificed for collecting major organs and tumors to evaluate the biodistribution of Gi-F-CAA.
# [1] = ex vivo, i.v., EJ xenograft mice
# [2] = ex vivo, EJ xenograft mice, i.v. 0.5 mg/kg, mice 1
# [3] = ex vivo, EJ xenograft mice, i.v. 0.5 mg/kg, mice 2
# [4] = ex vivo, EJ xenograft mice, i.v. 0.5 mg/kg, mice 3
# [5] = ex vivo, EJ xenograft mice, i.v. 1 mg/kg, mice 1
# [6] = ex vivo, EJ xenograft mice, i.v. 1 mg/kg, mice 2
# [7] = ex vivo, EJ xenograft mice, i.v. 1 mg/kg, mice 3
# [8] = ex vivo, EJ xenograft mice, i.v. 2 mg/kg, mice 1
# [9] = ex vivo, EJ xenograft mice, i.v. 2 mg/kg, mice 2
# [10] = ex vivo, EJ xenograft mice, i.v. 2 mg/kg, mice 3
# [11] = ex vivo, EJ xenograft mice, i.v. 4 mg/kg, mice 1
# [12] = ex vivo, EJ xenograft mice, i.v. 4 mg/kg, mice 2
# [13] = ex vivo, EJ xenograft mice, i.v. 4 mg/kg, mice 3
# [14] = ex vivo, EJ xenograft mice, i.v. 8 mg/kg, mice 1
# [15] = ex vivo, EJ xenograft mice, i.v. 8 mg/kg, mice 2
# [16] = ex vivo, EJ xenograft mice, i.v. 8 mg/kg, mice 3
compound,measurement,setting,value
CC(C)C[C@H](NC(=O)c1ccc(-c2c3nc(c(-c4ccc(C(=O)O)cc4)c4ccc([nH]4)c(-c4ccc(C(=O)O)cc4)c4nc(c(-c5ccc(C(=O)O)cc5)c5ccc2[nH]5)C=C4)C=C3)cc1)C(=O)N[C@@H](CCCCNC(=O)/C=C(/CC(=O)O)C(=O)O)C(=O)N[C@@H](CC(C)C)C(=O)N[C@@H](CCCCN)C(=O)N[C@@H](CC(C)C)C(=O)N[C@@H](CCCCNC(=O)/C=C(/CC(=O)O)C(=O)O)C(=O)NCC(=O)N[C@@H](C)C(=O)N[C@H]1CSSC[C@@H](C(=O)N2CCC[C@H]2C(=O)N[C@H](C(=O)O)C(C)C)NC(=O)[C@@H]2CCCN2C(=O)[C@H](Cc2ccc(O)cc2)NC(=O)[C@H](CC(C)C)NC(=O)[C@@H]2CCCN2C(=O)[C@H](CC(C)C)NC(=O)[C@H](Cc2c[nH]c3ccccc23)NC(=O)[C@H](CC(N)=O)NC1=O [Gi-F-CAA] (X1-LK(X2)LKLK(X2)GACNWLPLYPCPV-OH; disulfide 9-17; C-terminus assumed),ex vivo fluorescence signal at the tumor,"8 mg/kg i.v., versus Gi-F and Gi-F-SA groups",strong fluorescence signal
same,fluorescence intensity at tumor relative to kidney,[1],~ 2.4 fold
same,fluorescence intensity at tumor relative to liver,[1],~ 1.9 fold
same,kidney Average FI,[2],1.89E+07 x10^8 p/cm2/s
same,liver Average FI,[2],2.16E+07 x10^8 p/cm2/s
same,tumor Average FI,[2],1.51E+07 x10^8 p/cm2/s
same,kidney Average FI,[3],1.50E+07 x10^8 p/cm2/s
same,liver Average FI,[3],1.85E+07 x10^8 p/cm2/s
same,tumor Average FI,[3],1.10E+07 x10^8 p/cm2/s
same,kidney Average FI,[4],1.59E+07 x10^8 p/cm2/s
same,liver Average FI,[4],1.52E+07 x10^8 p/cm2/s
same,tumor Average FI,[4],1.37E+07 x10^8 p/cm2/s
same,kidney Average FI,[5],3.76E+07 x10^8 p/cm2/s
same,liver Average FI,[5],4.34E+07 x10^8 p/cm2/s
same,tumor Average FI,[5],2.76E+07 x10^8 p/cm2/s
same,kidney Average FI,[6],3.14E+07 x10^8 p/cm2/s
same,liver Average FI,[6],3.92E+07 x10^8 p/cm2/s
same,tumor Average FI,[6],2.99E+07 x10^8 p/cm2/s
same,kidney Average FI,[7],3.06E+07 x10^8 p/cm2/s
same,liver Average FI,[7],3.19E+07 x10^8 p/cm2/s
same,tumor Average FI,[7],3.48E+07 x10^8 p/cm2/s
same,kidney Average FI,[8],5.61E+07 x10^8 p/cm2/s
same,liver Average FI,[8],6.33E+07 x10^8 p/cm2/s
same,tumor Average FI,[8],4.80E+07 x10^8 p/cm2/s
same,kidney Average FI,[9],4.60E+07 x10^8 p/cm2/s
same,liver Average FI,[9],5.75E+07 x10^8 p/cm2/s
same,tumor Average FI,[9],3.97E+07 x10^8 p/cm2/s
same,kidney Average FI,[10],4.92E+07 x10^8 p/cm2/s
same,liver Average FI,[10],4.67E+07 x10^8 p/cm2/s
same,tumor Average FI,[10],3.88E+07 x10^8 p/cm2/s
same,kidney Average FI,[11],7.41E+07 x10^8 p/cm2/s
same,liver Average FI,[11],9.04E+07 x10^8 p/cm2/s
same,tumor Average FI,[11],9.54E+07 x10^8 p/cm2/s
same,kidney Average FI,[12],6.02E+07 x10^8 p/cm2/s
same,liver Average FI,[12],7.81E+07 x10^8 p/cm2/s
same,tumor Average FI,[12],8.23E+07 x10^8 p/cm2/s
same,kidney Average FI,[13],6.88E+07 x10^8 p/cm2/s
same,liver Average FI,[13],6.42E+07 x10^8 p/cm2/s
same,tumor Average FI,[13],9.16E+07 x10^8 p/cm2/s
same,kidney Average FI,[14],8.52E+07 x10^8 p/cm2/s
same,liver Average FI,[14],1.07E+08 x10^8 p/cm2/s
same,tumor Average FI,[14],2.09E+08 x10^8 p/cm2/s
same,kidney Average FI,[15],6.80E+07 x10^8 p/cm2/s
same,liver Average FI,[15],9.09E+07 x10^8 p/cm2/s
same,tumor Average FI,[15],1.62E+08 x10^8 p/cm2/s
same,kidney Average FI,[16],7.55E+07 x10^8 p/cm2/s
same,liver Average FI,[16],8.19E+07 x10^8 p/cm2/s
same,tumor Average FI,[16],1.71E+08 x10^8 p/cm2/s
